Measurements reported in patent US20220127372A1.

B1: GPC3-SL-mCD3ε (protein)
chain: EVQLVQSGAEVKKPGASVKVSCKASGYTFSDYEMHWVRQAPGQGLEWMGAIHPGSGDTAYNQRFKGRVTITADKSTSTAYMELSSLRSEDTAVYYCARFYSYAYWGQGTLVTVSAGGGGSGGGGSGGGGSDIVMTQTPLSLPVTPGEPASISCRSSQSLVHSNGNTYLQWYLQKPGQSPQLLIYKVSNRFSGVPDRFSGSGSGTDFTLKISRVEAEDVGVYYCSQSIYVPYTFGQGTKLEIKRAAAGGGGSGGGGSGGGGSLEDDAENIEYKVSISGTSVELTCPLDSDENLKWEKNGQELPQKHDKHLVLQDFSEVEDSGYYVCYTPASNKNTYLYLKARVCEYCVEVDLTAVAIIIIVDICITLGLLMVIYYWSKNRKAKAKPVTRGTGAGSRPRGQNKERPPPVPNPDYEPIRKGQRDLYSGLNQRAV
B2: GPC3-SL-mCD3ε-F2A-mIL7-P2A-mCCL21b (protein)
chain: B1 chain
B3: GPC3-SL-mCD3ε-NFAT-mIL12 (protein)
chain: B1 chain
B4: GPC3-SL-mCD3ε-F2A-mRunx3 (protein)
chain: B1 chain
B5: GPC3-SL-mCD3ε-F2A-mCCL21b (protein)
chain: B1 chain

Molecular target: mouse GPC3 protein (mouse) (UniProt Q8CFZ4)
Experiment: cell-based or functional assay

Sequence of UniProt Q8CFZ4 (Q8CFZ4 25-579 limits assumed): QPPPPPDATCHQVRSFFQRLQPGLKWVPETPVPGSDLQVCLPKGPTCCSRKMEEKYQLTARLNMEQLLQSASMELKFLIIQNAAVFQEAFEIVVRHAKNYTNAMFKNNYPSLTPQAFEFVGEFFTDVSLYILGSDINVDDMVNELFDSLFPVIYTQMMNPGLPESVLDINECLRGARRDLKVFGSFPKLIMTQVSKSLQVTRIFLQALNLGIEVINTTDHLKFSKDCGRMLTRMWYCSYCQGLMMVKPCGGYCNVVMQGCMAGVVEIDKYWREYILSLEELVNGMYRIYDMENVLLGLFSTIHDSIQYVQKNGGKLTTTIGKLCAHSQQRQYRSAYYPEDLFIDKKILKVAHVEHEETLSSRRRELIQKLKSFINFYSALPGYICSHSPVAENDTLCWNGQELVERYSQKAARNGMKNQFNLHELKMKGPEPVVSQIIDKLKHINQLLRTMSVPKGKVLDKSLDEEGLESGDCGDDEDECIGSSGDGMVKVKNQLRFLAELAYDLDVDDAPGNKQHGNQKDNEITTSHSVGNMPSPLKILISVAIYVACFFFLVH

Row | Binder | cytotoxicity to Hepa 1-6 GPC3 cells, effector target ratio 1:1, 18 h (CytoTox 96)
1 | B1 | 70.7%
2 | B2 | 73.4%
3 | B3 | 91.5%
4 | B4 | 82.2%
5 | B5 | 73.2%
